{"source": "paper PMC6374468", "about": "(Nature Communications, 2019)", "binders": {"B1": {"name": "VRC01 FR3-03 (antibody, V domains shown)", "VH": "QVQLVQSGGQMKKPGESMRISCRASGYEFIDCTLNWIRLAPGKRPEWMGWLKPRGGAVNYARPLQGRVTMTRQLSQDPDDPDWGTAFLELRSLTVDDTAVYFCTRGKNCDYNWDFEHWGRGTPVIVGG", "VL": "EIVLTQSPGTLSLSPGETAIISCRTSQYGSLAWYQQRPGQAPRLVIYSGSTRAAGIPDRFSGSRWGPDYNLTISNLESGDFGVYYCQQYEFFGQGTKVQVG"}}, "biological_target": "monomeric gp120 from isolate BaL (HIV-1 clade B, isolate BaL (clone not …, UniProt Q6TAP7, strain))", "test": "ELISA", "data": [{"binder": "B1", "values": [{"measurement": "binding result", "value": "binds"}]}]}
